The values that follow come from patent US20190271021A1 (Hoffmann-La Roche, published 2019).

Experiment [1] has as its target T1, human TrkB on CHO cells (CHO-K1-hTrkB/pSRE-Luc) (human, UniProt Q16620 32-822). In words: cell-based or functional assay.
For experiment [2], the target named is T1, human TrkB on CHO cells …. In words: cell-based or functional assay. This is another data set of the same source.
The target in experiment [3] is T2, TrkB-Fc fusion (R&D Systems) (UniProt Q16620 32-430).
T2 construct: the ELISA paragraph says only TrkB-Fc fusion (R&D Systems); also called Human Fc-tagged TrkB; not shown: Fc part of the bought fusion
T2 sequence (Q16620 32-430 limits assumed): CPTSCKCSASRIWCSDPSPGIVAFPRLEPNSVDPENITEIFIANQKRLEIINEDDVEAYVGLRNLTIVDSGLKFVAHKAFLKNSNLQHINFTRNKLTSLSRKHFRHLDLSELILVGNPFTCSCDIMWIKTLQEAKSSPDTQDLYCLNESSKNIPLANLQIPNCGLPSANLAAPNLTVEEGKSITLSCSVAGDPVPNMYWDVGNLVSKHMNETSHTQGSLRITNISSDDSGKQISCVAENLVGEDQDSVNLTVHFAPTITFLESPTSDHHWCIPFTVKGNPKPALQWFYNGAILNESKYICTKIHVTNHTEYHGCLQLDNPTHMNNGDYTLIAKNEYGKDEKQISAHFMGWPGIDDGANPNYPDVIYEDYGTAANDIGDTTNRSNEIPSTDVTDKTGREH
Put plainly: TrkB ELISA, plate coated with TrkB-Fc, detection with anti-BDNF antibody. The protocol: The binding properties of BDNF-containing fusion proteins were determined with a TrkB ELISA. Maxisorb plates were coated with 1 μg/mL of a TrkB-Fc fusion (R&D Systems) in PBS overnight at 4° C. After blocking the plate with PBSTC (PBS with 0.05% Tween-20 and 2% Chicken serum (Gibco)) for 1 h at RT and three washes with PBST, BDNF-containing fusion proteins or BDNF alone were added to the wells at concentrations of 15 to 500 ng/mL in PBSTC and incubated for 2 h at RT. After six washes, the wells were incubated with mouse-anti-BDNF antibody (clone 4F11.1A1, 1 μg/mL in PBSTC) and, after further washes, with anti-mouse-HRP antibody (1:10000 in PBSTC), both for 1 h at RT. After three washes with PBST, HRP activity was detected using ABTS substrate and photometric quantification at a wavelength of 492 nm.

T1 sequence (Q16620 32-822): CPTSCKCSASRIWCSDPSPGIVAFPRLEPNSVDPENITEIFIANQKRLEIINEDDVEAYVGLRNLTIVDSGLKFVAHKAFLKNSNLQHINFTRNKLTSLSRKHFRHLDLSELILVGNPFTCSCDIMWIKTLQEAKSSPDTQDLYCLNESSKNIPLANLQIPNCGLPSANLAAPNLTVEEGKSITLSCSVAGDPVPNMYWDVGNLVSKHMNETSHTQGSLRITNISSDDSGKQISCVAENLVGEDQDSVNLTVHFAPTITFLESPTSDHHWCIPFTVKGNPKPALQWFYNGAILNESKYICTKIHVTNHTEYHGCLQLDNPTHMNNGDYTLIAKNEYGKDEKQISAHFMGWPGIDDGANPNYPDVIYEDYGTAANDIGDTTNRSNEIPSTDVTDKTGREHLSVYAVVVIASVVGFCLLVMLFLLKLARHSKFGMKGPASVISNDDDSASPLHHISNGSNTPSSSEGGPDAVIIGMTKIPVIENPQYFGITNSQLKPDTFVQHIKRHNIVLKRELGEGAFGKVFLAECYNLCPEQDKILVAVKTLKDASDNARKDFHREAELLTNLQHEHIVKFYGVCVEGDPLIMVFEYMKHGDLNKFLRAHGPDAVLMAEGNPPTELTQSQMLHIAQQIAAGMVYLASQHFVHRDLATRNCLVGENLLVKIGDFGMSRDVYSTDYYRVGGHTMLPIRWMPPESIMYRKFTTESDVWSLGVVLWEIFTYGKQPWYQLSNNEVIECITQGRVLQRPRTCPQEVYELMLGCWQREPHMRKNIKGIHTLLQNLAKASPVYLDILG

B1: wild-type BDNF (E. coli) (ligand)
chain: HSDPARRGELSVCDSISEWVTAADKKTAVDMSGGTVTVLEKVPVSKGQLKQYFYETKCNPMGYTKEGCRGIDKRHWNSQCRTTQSYVRALTMDSKKRIGWRFIRIDTSCVCTLTIKRGR
notes: No tag, no linker, RGR not deleted; also called wt-BDNF; non-glycosylated mature wild-type BDNF
Take B1: in experiment [1], the “BDNF activity in TrkBluciferase assay, EC50 [% or nM]” value came out at 0.44 nM. Moreover, the “relative BDNF activity in TrkB luciferase assay, EC50 [%]” value in experiment [2] was determined as 60%. Also, the EC50 in experiment [3] was 5.7 nM.

B2: pre-pro-BDNF(-RGD)_(G4S)6GG_VH<IGF-1R>-CH1-His6 with anti-IGF-1R antibody light chain (other)
heavy: HSDPARRGELSVCDSISEWVTAADKKTAVDMSGGTVTVLEKVPVSKGQLKQYFYETKCNPMGYTKEGCRGIDKRHWNSQCRTTQSYVRALTMDSKKRIGWRFIRIDTSCVCTLTIKGGGGSGGGGSGGGGSGGGGSGGGGSGGGGSGGQVELVESGGGVVQPGRSQRLSCAASGFTFSSYGMHWVRQAPGKGLEWVAIIWFDGSSTYYADSVRGRFTISRDNSKNTLYLQMNSLRAEDTAVYFCARELGRRYFDLWGRGTLVSVSSASTKGPSVFPLAPSSKSTSGGTAALGCLVKDYFPEPVTVSWNSGALTSGVHTFPAVLQSSGLYSLSSVVTVPSSSLGTQTYICNVNHKPSNTKVDKKVGSGHHHHHH
light: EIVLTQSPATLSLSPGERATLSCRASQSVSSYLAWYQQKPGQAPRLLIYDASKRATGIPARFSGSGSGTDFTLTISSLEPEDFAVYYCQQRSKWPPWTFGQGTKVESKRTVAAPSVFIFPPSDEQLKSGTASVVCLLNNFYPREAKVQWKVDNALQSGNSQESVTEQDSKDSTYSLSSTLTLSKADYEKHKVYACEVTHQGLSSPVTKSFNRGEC
notes: BDNF part of the entry is the pre-pro precursor
Consider B2, for which, in experiment [3], the EC50 was 18.5 nM.

B3: pre-pro-BDNF(-RGR)-T7-His6 (ligand)
chain: HSDPARRGELSVCDSISEWVTAADKKTAVDMSGGTVTVLEKVPVSKGQLKQYFYETKCNPMGYTKEGCRGIDKRHWNSQCRTTQSYVRALTMDSKKRIGWRFIRIDTSCVCTLTIKGSGMASMTGGQQMGHHHHHH
notes: Entry is the pre-pro precursor as expressed (HEK293); values normalized to maturated BDNF; also called pp-BDNF; parental construct
Take B3: in experiment [3], the midpoint of the response, the EC50, lay at 8.9 nM.

B4: complex of pre-pro-BDNF(-RGD)_(G4S)2GG_VH<IGF-1R>-CH1-His6, anti-IGF-1R antibody light chain and not-fused pre-pro-BDNF(-RGR)-T7-His6 (other)
heavy: HSDPARRGELSVCDSISEWVTAADKKTAVDMSGGTVTVLEKVPVSKGQLKQYFYETKCNPMGYTKEGCRGIDKRHWNSQCRTTQSYVRALTMDSKKRIGWRFIRIDTSCVCTLTIKGGGGSGGGGSGGQVELVESGGGVVQPGRSQRLSCAASGFTFSSYGMHWVRQAPGKGLEWVAIIWFDGSSTYYADSVRGRFTISRDNSKNTLYLQMNSLRAEDTAVYFCARELGRRYFDLWGRGTLVSVSSASTKGPSVFPLAPSSKSTSGGTAALGCLVKDYFPEPVTVSWNSGALTSGVHTFPAVLQSSGLYSLSSVVTVPSSSLGTQTYICNVNHKPSNTKVDKKVGSGHHHHHH
light: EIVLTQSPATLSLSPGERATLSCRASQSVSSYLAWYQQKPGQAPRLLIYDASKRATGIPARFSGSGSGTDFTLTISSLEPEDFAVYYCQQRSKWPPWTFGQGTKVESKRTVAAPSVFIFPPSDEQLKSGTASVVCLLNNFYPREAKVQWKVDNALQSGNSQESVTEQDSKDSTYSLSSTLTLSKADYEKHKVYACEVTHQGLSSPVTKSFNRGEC
chain: HSDPARRGELSVCDSISEWVTAADKKTAVDMSGGTVTVLEKVPVSKGQLKQYFYETKCNPMGYTKEGCRGIDKRHWNSQCRTTQSYVRALTMDSKKRIGWRFIRIDTSCVCTLTIKGSGMASMTGGQQMGHHHHHH
notes: BDNF-Fab fusion co-expressed with light chain and not-fused BDNF; BDNF entries are pre-pro precursors
In turn, B4 returned an EC50 in experiment [3] of 6.1 nM.

B5: pre-pro-BDNF(-RGD)_(G4S)4GG_VH<IGF-1R>-CH1-His6 with anti-IGF-1R antibody light chain (other)
heavy: HSDPARRGELSVCDSISEWVTAADKKTAVDMSGGTVTVLEKVPVSKGQLKQYFYETKCNPMGYTKEGCRGIDKRHWNSQCRTTQSYVRALTMDSKKRIGWRFIRIDTSCVCTLTIKGGGGSGGGGSGGGGSGGGGSGGQVELVESGGGVVQPGRSQRLSCAASGFTFSSYGMHWVRQAPGKGLEWVAIIWFDGSSTYYADSVRGRFTISRDNSKNTLYLQMNSLRAEDTAVYFCARELGRRYFDLWGRGTLVSVSSASTKGPSVFPLAPSSKSTSGGTAALGCLVKDYFPEPVTVSWNSGALTSGVHTFPAVLQSSGLYSLSSVVTVPSSSLGTQTYICNVNHKPSNTKVDKKVGSGHHHHHH
light: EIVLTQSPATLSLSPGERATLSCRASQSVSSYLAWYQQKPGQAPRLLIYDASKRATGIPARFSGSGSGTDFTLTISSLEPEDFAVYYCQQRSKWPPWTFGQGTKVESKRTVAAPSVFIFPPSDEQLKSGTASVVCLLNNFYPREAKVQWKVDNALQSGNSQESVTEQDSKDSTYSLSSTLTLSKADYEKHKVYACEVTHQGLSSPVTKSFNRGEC
notes: as for B2
With B5, the response in experiment [3] was half-maximal at 13.5 nM (EC50).

B6: pre-pro-BDNF(-RGD)_(G4S)2GG_VH<IGF-1R>-CH1-His6 with anti-IGF-1R antibody light chain (other)
heavy: HSDPARRGELSVCDSISEWVTAADKKTAVDMSGGTVTVLEKVPVSKGQLKQYFYETKCNPMGYTKEGCRGIDKRHWNSQCRTTQSYVRALTMDSKKRIGWRFIRIDTSCVCTLTIKGGGGSGGGGSGGQVELVESGGGVVQPGRSQRLSCAASGFTFSSYGMHWVRQAPGKGLEWVAIIWFDGSSTYYADSVRGRFTISRDNSKNTLYLQMNSLRAEDTAVYFCARELGRRYFDLWGRGTLVSVSSASTKGPSVFPLAPSSKSTSGGTAALGCLVKDYFPEPVTVSWNSGALTSGVHTFPAVLQSSGLYSLSSVVTVPSSSLGTQTYICNVNHKPSNTKVDKKVGSGHHHHHH
light: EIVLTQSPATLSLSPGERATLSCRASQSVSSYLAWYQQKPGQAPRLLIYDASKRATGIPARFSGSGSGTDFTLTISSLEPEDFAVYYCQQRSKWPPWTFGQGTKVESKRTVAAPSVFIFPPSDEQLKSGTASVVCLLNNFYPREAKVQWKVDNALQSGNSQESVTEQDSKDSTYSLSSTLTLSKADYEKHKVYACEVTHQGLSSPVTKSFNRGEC
notes: as for B2
The molecule B6 had an EC50 in experiment [3] of 17 nM.
